Experiment [1] deals with T1, soluble human IL-6 receptor (human, UniProt P08887 20-357).
T1 construct: also called hsIL-6R
T1 sequence: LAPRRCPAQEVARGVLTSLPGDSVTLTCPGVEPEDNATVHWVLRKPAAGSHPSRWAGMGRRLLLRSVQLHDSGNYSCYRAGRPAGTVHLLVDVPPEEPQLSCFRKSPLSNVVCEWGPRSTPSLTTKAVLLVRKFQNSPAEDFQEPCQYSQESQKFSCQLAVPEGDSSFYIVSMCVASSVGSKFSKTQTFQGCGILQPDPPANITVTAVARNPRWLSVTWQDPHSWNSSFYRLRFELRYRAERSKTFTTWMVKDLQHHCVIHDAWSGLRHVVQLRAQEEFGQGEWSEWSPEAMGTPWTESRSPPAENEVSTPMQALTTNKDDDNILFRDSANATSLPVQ
Description: SPR (Reference Example 6). The protocol: The kinetic analysis of the antigen-antibody reactions was conducted in solutions with 2 mM and 3 μM calcium ion concentrations, set as high and low calcium ion concentration conditions, respectively. The antibody of interest was captured on Sensor chip CM4 (GE Healthcare) on which an appropriate amount of Protein A (Invitrogen) was immobilized by an amine coupling method. Two buffers [10 mM ACES, 150 mM NaCl, 0.05% (w/v) Tween 20, and 2 mM CaCl₂) (pH 7.4) or 10 mM ACES, 150 mM NaCl, 0.05% (w/v) Tween 20, and 3 μmol/L CaCl₂ (pH 7.4)] were used as running buffers. These buffers were used for diluting human IL-6 receptor. All the measurements were conducted at 37° C.
Subsequently, the sensor chip was regenerated by injecting 10 mM glycine-HCl (pH 1.5) at a flow rate 30 μL/min for 30 seconds. Dissociation constants (KD) (M) were calculated from the sensorgrams obtained in the measurement, using a steady-state affinity model. Each parameter was calculated using the Biacore T100 Evaluation Software (GE Healthcare).

For experiment [2], the target named is T2, human FcγRIIa type H (H131) extracellular domain with C-terminal His tag (human, UniProt P12318 34-217).
T2 construct: extracellular domain; also called FcγRIIaH; not shown: His tag at the C terminus
T2 sequence (looked up): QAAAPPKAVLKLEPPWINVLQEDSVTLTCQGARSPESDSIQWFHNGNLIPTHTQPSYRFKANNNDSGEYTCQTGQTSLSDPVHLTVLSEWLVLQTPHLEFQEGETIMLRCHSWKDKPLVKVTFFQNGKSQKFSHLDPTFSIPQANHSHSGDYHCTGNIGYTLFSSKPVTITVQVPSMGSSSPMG
Description: SPR (Biacore), antibody captured, FcγR analyte. (SPR reads the build-up and loss of mass on a sensor chip optically.)

Experiment [3] addresses T3, human FcγRIa extracellular domain with C-terminal His tag (human, UniProt P12314 16-292).
T3 construct: not shown: His tag at the C terminus
The experiment can be described thus: SPR (Biacore), antibody captured, FcγR analyte.

Experiment [4] has as its target T4, human FcγRIIb extracellular domain with C-terminal His tag (human, UniProt P31994 43-217).
T4 construct: extracellular domain; not shown: His tag at the C terminus
T4 sequence (looked up): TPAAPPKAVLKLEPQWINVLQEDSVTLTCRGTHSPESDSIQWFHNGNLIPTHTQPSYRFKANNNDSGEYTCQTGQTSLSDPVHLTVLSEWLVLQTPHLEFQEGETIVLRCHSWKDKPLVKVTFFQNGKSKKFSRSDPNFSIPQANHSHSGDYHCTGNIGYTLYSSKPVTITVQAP
The experiment can be described thus: SPR (Biacore), antibody captured, FcγR analyte.

In experiment [5] the target is T5, human FcγRIIb extracellular domain (human, UniProt P31994 43-217).
T5 construct: also called FcγIIB; not shown: His tag at the C terminus
T5 sequence: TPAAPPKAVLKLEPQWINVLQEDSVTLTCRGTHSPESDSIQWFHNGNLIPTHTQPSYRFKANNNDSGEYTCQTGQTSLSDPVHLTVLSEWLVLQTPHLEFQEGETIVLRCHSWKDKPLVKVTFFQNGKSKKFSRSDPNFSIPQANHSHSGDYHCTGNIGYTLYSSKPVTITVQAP
Description: fold against IL6R-B3/IL6R-L, from SPR KD values.

Experiment [6] concerns the target T6, human FcγRIIa type R extracellular domain (human, UniProt P12318 34-217).
T6 construct: also called FcγRIIaR; FcγRIIa(R); not shown: His tag at the C terminus
T6 chain: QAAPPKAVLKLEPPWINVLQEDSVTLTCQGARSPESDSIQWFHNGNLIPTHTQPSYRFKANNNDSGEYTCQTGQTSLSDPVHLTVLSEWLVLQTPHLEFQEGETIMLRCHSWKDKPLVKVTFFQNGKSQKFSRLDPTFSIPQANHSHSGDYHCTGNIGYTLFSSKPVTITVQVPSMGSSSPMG
Description: fold against IL6R-B3/IL6R-L, from SPR KD values.

Experiment [7] addresses T5, human FcγRIIb extracellular domain. Description: SPR (Biacore), antibody captured on chip, FcγR extracellular domain as analyte, 25 C.
Experiment [8] concerns the target T6, human FcγRIIa type R extracellular …. Described as above.
Experiment [9] has as its target T7, human FcγRIa extracellular domain (human, UniProt P12314 16-292).
T7 construct: also called CD64; not shown: His tag at the C terminus
The description is as above.

Experiment [10] has as its target T8, human FcγRIIa type H extracellular domain (human, UniProt P12318 34-217).
T8 construct: also called FcγRIIaH; FcγRIIa(H); not shown: His tag at the C terminus
T8 sequence: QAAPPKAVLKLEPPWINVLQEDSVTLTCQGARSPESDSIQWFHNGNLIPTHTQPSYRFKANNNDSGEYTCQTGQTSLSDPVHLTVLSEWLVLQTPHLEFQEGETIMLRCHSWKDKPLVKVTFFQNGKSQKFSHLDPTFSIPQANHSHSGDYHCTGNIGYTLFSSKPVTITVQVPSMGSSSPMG
Described as above.

In experiment [11] the target is T5, human FcγRIIb extracellular domain. The experiment can be described thus: ratio of the SPR KD for FcγRIIaH to the KD for FcγRIIb (selectivity).
Experiment [12] shares this target. The experiment can be described thus: ratio of the SPR KD for FcγRIIaR to the KD for FcγRIIb (selectivity).

T3 sequence (P12314 16-292): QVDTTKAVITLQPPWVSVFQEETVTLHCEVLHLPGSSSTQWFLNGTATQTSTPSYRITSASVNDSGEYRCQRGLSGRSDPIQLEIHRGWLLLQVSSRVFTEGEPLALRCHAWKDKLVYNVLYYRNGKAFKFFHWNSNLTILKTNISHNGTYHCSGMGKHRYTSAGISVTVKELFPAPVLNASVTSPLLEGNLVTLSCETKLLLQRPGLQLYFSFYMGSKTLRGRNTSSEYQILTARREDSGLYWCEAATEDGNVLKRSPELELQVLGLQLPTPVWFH
T7 sequence (P12314 16-292): as above

B1: 6RL#9-IgG1 (antibody, V domains shown)
VH: QVQLVQSGAEVKKPGASVKVSCKASGYTFTSYYMHWVRQAPGQGLEWMGIINPSGGSTSYAQKFQGRVTMTRDTSTSTVYMELSSLRSEDTAVYYCARDDPGGGEYYFDYWGQGTLVTVSS
VL: QSVLTQPPSVSGAPGQRVTISCTGSRSNMGAGYDVHWYQLLPGAAPKLLISHNTHRPSGVPDRFSGSKSGASASLAITGLQAEDEADYYCQSHDSSLSAVVFGGGTKLTVLS
notes: also called antibody 6RL#9
In [1], B1 gave a Ca-dependent binding ability of at least 100 fold.

B2: FH4-IgG1 (antibody, V domains shown)
VH: QVQLVQSGAEVKKPGSSVKVSCKASGGTFSSYAISWVRQAPGQGLEWMGGIIPIFGTANYAQKFQGRVTITADESTSTAYMELSSLRSEDTAVYYCARERDYYDSSGYYDAFDIWGQGTMVTVSS
VL: ETTVTQSPSFLSASVGDRVTITCITTTDIDDDMNWFQQEPGKAPKLLISEGNILRPGVPSRFSSSGYGTDFTLTISKLQPEDFATYYCLQSDNLPFTFGQGTKLEIKR
In experiment [1], B2 had a Ca-dependent binding ability of at least 100 fold.

B3: IL6R-BP447/IL6R-L (antibody, human IgG1, kappa)
heavy: QVQLQESGPGLVKPSETLSLTCAVSGHSISHDHAWSWVRQPPGEGLEWIGFISYSGITNYNPSLQGRVTISRDNSKNTLYLQMNSLRAEDTAVYYCARSLARTTAMDYWGEGTLVTVSSASTKGPSVFPLAPSSKSTSGGTAALGCLVKDYFPEPVTVSWNSGALTSGVHTFPAVLQSSGLYSLSSVVTVPSSSLGTQTYICNVNHKPSNTKVDKKVEPKSCDKTHTCPPCPAPDLLGDDSVFLFPPKPKDTLMISRTPEVTCVVVDVAEEDGEVKFNWYVDGVEVHNAKTKPREEQYNSTYRVVSVLTVLHQDWLNGKEYKCKVSNKALPRPIEKTISKAKGQPREPQVYTLPPSRDELTKNQVSLTCLVKGFYPSDIAVEWESNGQPENNYKTTPAVLDSDGSFFLYSKLTVDKSRWQQGNVFSCSVMHEALHNHYTQESLSLSP
light: not shown
notes: P396A introduced into IL6R-BP423; copies: 2 + 2
As to B3, the Kd in experiment [2] stood at 2000 nM; in experiment [3], 0.9 nM.

B4: IL6R-BP456/IL6R-L (antibody, human IgG1, kappa)
heavy: QVQLQESGPGLVKPSETLSLTCAVSGHSISHDHAWSWVRQPPGEGLEWIGFISYSGITNYNPSLQGRVTISRDNSKNTLYLQMNSLRAEDTAVYYCARSLARTTAMDYWGEGTLVTVSSASTKGPSVFPLAPSSKSTSGGTAALGCLVKDYFPEPVTVSWNSGALTSGVHTFPAVLQSSGLYSLSSVVTVPSSSLGTQTYICNVNHKPSNTKVDKKVEPKSCDKTHTCPPCPAPDLLGDDSVFLFPPKPKDTLMISRTPEVTCVVVDVAEEDGEVKFNWYVDGVEVHNAKTKPREEQYNSTYRVVSVLTVLHQDWLNGKEYKCKVSNKALPRPIEKTISKAKGQPREPQVYTLPPSRDELTKNQVSLTCLVKGFYPSDIAVEWESNGQPENNYKTTPMVLDSDGSFFLYSKLTVDKSRWQQGNVFSCSVMHEALHNHYTQESLSLSP
light: not shown
notes: P396M introduced into IL6R-BP423; copies: 2 + 2
As to B4, the Kd is 2000 nM in experiment [2] and 0.6 nM in [3].

B5: IL6R-BP464/IL6R-L (antibody, human IgG1, kappa)
heavy: QVQLQESGPGLVKPSETLSLTCAVSGHSISHDHAWSWVRQPPGEGLEWIGFISYSGITNYNPSLQGRVTISRDNSKNTLYLQMNSLRAEDTAVYYCARSLARTTAMDYWGEGTLVTVSSASTKGPSVFPLAPSSKSTSGGTAALGCLVKDYFPEPVTVSWNSGALTSGVHTFPAVLQSSGLYSLSSVVTVPSSSLGTQTYICNVNHKPSNTKVDKKVEPKSCDKTHTCPPCPAPDLLGDDSVFLFPPKPKDTLMISRTPEVTCVVVDVAEEDGEVKFNWYVDGVEVHNAKTKPREEQYNSTYRVVSVLTVLHQDWLNGKEYKCKVSNKALPRPIEKTISKAKGQPREPQVYTLPPSRDELTKNQVSLTCLVKGFYPSDIAVEWESNGQPENNYKTTPYVLDSDGSFFLYSKLTVDKSRWQQGNVFSCSVMHEALHNHYTQESLSLSP
light: not shown
notes: P396Y introduced into IL6R-BP423; copies: 2 + 2
B5 yielded a dissociation constant Kd in [4] of 4 nM.

B6: IL6R-BP563/IL6R-L (antibody, human IgG1, kappa)
heavy: QVQLQESGPGLVKPSETLSLTCAVSGHSISHDHAWSWVRQPPGEGLEWIGFISYSGITNYNPSLQGRVTISRDNSKNTLYLQMNSLRAEDTAVYYCARSLARTTAMDYWGEGTLVTVSSASTKGPSVFPLAPSSKSTSGGTAALGCLVKDYFPEPVTVSWNSGALTSGVHTFPAVLQSSGLYSLSSVVTVPSSSLGTQTYICNVNHKPSNTKVDKKVEPKSCDKTHTCPPCPAPDLLGDDSVFLFPPKPKDTLMISRTPEVTCVVVDVSEEDGDVKFNWYVDGVEVHNAKTKPREEQDNSTYRVVSVLTVLHQDWLNGKEYKCKVSNKALPRPIEKTISKAKGQPREPQVYTLPPSRDELTKNQVSLTCLVKGFYPSDIAVEWESNGQPENNYKTTPPVLDSDGSFFLYSKLTVDKSRWQQGNVFSCSVMHEALHNHYTQESLSLSP
light: not shown
notes: copies: 2 + 2
As to B6, the “KD(IIb) of the parent polypeptide/KD(IIb) of the altered polypeptide” value in experiment [5] came out at 196. Also, the “KD(IIaR) of the parent polypeptide/KD(IIaR) of the altered polypeptide” value in [6] turned out to be 2.4. Also, the Kd in [7] was found to be 16 nM; in [8], 460 nM; in [9] it was 12 nM; in experiment [10], 8300 nM. Further, the “KD(IIaH)/KD(IIb)” value in [11] came to 525. Besides, in experiment [12], the “KD(IIaR)/KD(IIb)” value came out at 29.1.

B7: IL6R-BP455/IL6R-L (antibody, human IgG1, kappa)
heavy: QVQLQESGPGLVKPSETLSLTCAVSGHSISHDHAWSWVRQPPGEGLEWIGFISYSGITNYNPSLQGRVTISRDNSKNTLYLQMNSLRAEDTAVYYCARSLARTTAMDYWGEGTLVTVSSASTKGPSVFPLAPSSKSTSGGTAALGCLVKDYFPEPVTVSWNSGALTSGVHTFPAVLQSSGLYSLSSVVTVPSSSLGTQTYICNVNHKPSNTKVDKKVEPKSCDKTHTCPPCPAPDLLGDDSVFLFPPKPKDTLMISRTPEVTCVVVDVAEEDGEVKFNWYVDGVEVHNAKTKPREEQYNSTYRVVSVLTVLHQDWLNGKEYKCKVSNKALPRPIEKTISKAKGQPREPQVYTLPPSRDELTKNQVSLTCLVKGFYPSDIAVEWESNGQPENNYKTTPLVLDSDGSFFLYSKLTVDKSRWQQGNVFSCSVMHEALHNHYTQESLSLSP
light: not shown
notes: P396L introduced into IL6R-BP423; copies: 2 + 2
For the molecule B7, the Kd in experiment [2] came out at 1600 nM; in experiment [4], 4 nM.

Usually Kd stands for the concentration at which binding is half-saturated.

The values above are taken from patent US20220389118A1 (Chugai, published 2022).
